Laboratory results reported in patent US20160136299A1 (published 2016).
Where two headings read alike, the source gives them in different places.

Legend:
CD-52 peptide 741 [1] = experiment: SPR
CD-52 peptide 741 [2] = experiment: SPR; remark: listed apart in the source
[3] = target: SAM conjugate (~0.8 GalNAc) (S9); experiment: SPR; ~0.8 GalNAc
[4] = target: SAM conjugate (~8 gp) (S5); experiment: SPR; trivalent galactose glycopeptide conjugate
Control enzyme (S4) = experiment: SPR
[5] = target: SAM conjugate (~1.6 GalNAc) (S10); experiment: SPR; ~1.6 GalNAc

Row | Binder | Kd (CD-52 peptide 741 [2]) | other results
1 | A114N (antibody, additional N-linked glycan at N114 (Kabat)) heavy: not shown light: DIVMTQTPLSLSVTPGQPASISCKSSQSLLYSNGKTYLNWLLQKPGQSPQRLIYLVSKLDSGVPDRFSGSGSGTDFTLKISRVEAEDVGVYYCVQGTHLHTFGQGTRLEIKRTVAAPSVFIFPPSDEQLKSGTASVVCLLNNFYPREAKVQWKVDNALQSGNSQESVTEQDSKDSTYSLSSTLTLSKADYEKHKVYACEVTHQGLSSPVTKSFNRGEC | – | Kd (CD-52 peptide 741 [1]): 2.4 nM
2 | NGT (antibody) heavy: not shown light: DIVMTQTPLSLSVTPGQPASISCKSSQSLLYSNGKTYLNWLLQKPGQSPQRLIYLVSKLDSGVPDRFSGSGSGTDFTLKISRVEAEDVGVYYCVQGTHLHTFGQGTRLEIKRTVAAPSVFIFPPSDEQLKSGTASVVCLLNNFYPREAKVQWKVDNALQSGNSQESVTEQDSKDSTYSLSSTLTLSKADYEKHKVYACEVTHQGLSSPVTKSFNRGEC | 1.35 nM | –
3 | S440N (antibody) heavy: not shown light: DIVMTQTPLSLSVTPGQPASISCKSSQSLLYSNGKTYLNWLLQKPGQSPQRLIYLVSKLDSGVPDRFSGSGSGTDFTLKISRVEAEDVGVYYCVQGTHLHTFGQGTRLEIKRTVAAPSVFIFPPSDEQLKSGTASVVCLLNNFYPREAKVQWKVDNALQSGNSQESVTEQDSKDSTYSLSSTLTLSKADYEKHKVYACEVTHQGLSSPVTKSFNRGEC | 1.84 nM | –
4 | WT 2C3 (antibody) heavy: not shown light: DIVMTQTPLSLSVTPGQPASISCKSSQSLLYSNGKTYLNWLLQKPGQSPQRLIYLVSKLDSGVPDRFSGSGSGTDFTLKISRVEAEDVGVYYCVQGTHLHTFGQGTRLEIKRTVAAPSVFIFPPSDEQLKSGTASVVCLLNNFYPREAKVQWKVDNALQSGNSQESVTEQDSKDSTYSLSSTLTLSKADYEKHKVYACEVTHQGLSSPVTKSFNRGEC | 1.75 nM | Kd (CD-52 peptide 741 [1]): 2.1 nM
5 | S442N (antibody) heavy: not shown light: DIVMTQTPLSLSVTPGQPASISCKSSQSLLYSNGKTYLNWLLQKPGQSPQRLIYLVSKLDSGVPDRFSGSGSGTDFTLKISRVEAEDVGVYYCVQGTHLHTFGQGTRLEIKRTVAAPSVFIFPPSDEQLKSGTASVVCLLNNFYPREAKVQWKVDNALQSGNSQESVTEQDSKDSTYSLSSTLTLSKADYEKHKVYACEVTHQGLSSPVTKSFNRGEC | 1.85 nM | –
6 | Y436T (antibody) heavy: not shown light: DIVMTQTPLSLSVTPGQPASISCKSSQSLLYSNGKTYLNWLLQKPGQSPQRLIYLVSKLDSGVPDRFSGSGSGTDFTLKISRVEAEDVGVYYCVQGTHLHTFGQGTRLEIKRTVAAPSVFIFPPSDEQLKSGTASVVCLLNNFYPREAKVQWKVDNALQSGNSQESVTEQDSKDSTYSLSSTLTLSKADYEKHKVYACEVTHQGLSSPVTKSFNRGEC | 1.95 nM | –
7 | Y436S (antibody) heavy: not shown light: DIVMTQTPLSLSVTPGQPASISCKSSQSLLYSNGKTYLNWLLQKPGQSPQRLIYLVSKLDSGVPDRFSGSGSGTDFTLKISRVEAEDVGVYYCVQGTHLHTFGQGTRLEIKRTVAAPSVFIFPPSDEQLKSGTASVVCLLNNFYPREAKVQWKVDNALQSGNSQESVTEQDSKDSTYSLSSTLTLSKADYEKHKVYACEVTHQGLSSPVTKSFNRGEC | 1.73 nM | –
8 | S298N/Y300S (antibody) heavy: not shown light: DIVMTQTPLSLSVTPGQPASISCKSSQSLLYSNGKTYLNWLLQKPGQSPQRLIYLVSKLDSGVPDRFSGSGSGTDFTLKISRVEAEDVGVYYCVQGTHLHTFGQGTRLEIKRTVAAPSVFIFPPSDEQLKSGTASVVCLLNNFYPREAKVQWKVDNALQSGNSQESVTEQDSKDSTYSLSSTLTLSKADYEKHKVYACEVTHQGLSSPVTKSFNRGEC | 1.8 nM | –
9 | ASGPR receptor subunit H1 (receptor) QNSQLQEELRGLRETFSNFTASTEAQVKGLSTQGGNVGRKMKSLESQLEKQQKDLSEDHSSLLLHVKQFVSDLRSLSCQMAALQGNGSERTCCPVNWVEHERSCYWFSRSGKAWADADNYCRLEDAHLVVVTSWEEQKFVQHHIGPVNTWMGLHDQNGPWKWVDGTDYETGFKNWRPEQPDDWYGHGLGGGEDCAHFTDDGRWNDDVCQRPYRWVCETELDKASQEPPLL | – | koff [3]: 0.00107 s⁻¹; koff [4]: 0.0387 s⁻¹; koff (Control enzyme (S4)): 0.0515 s⁻¹; koff [5]: 0.000296 s⁻¹
